The experiment has as its target MMPs in infected porcine wound fluid. Nature of the experiment: cell-based or functional assay.

From patent US20060205646A1 come the findings set out here.

“γ-D-crystallin (from UniProt P07320 2-174)” registered an inhibition of MMP activity (Fluorogenic Peptide Substrate I), 0.4 mg/mL γ-D-crystallin of 50%.
